Consider five molecules from article PMC11882435, “Thermodynamic modeling of RsmA - mRNA interactions capture novel direct binding across the Pseudomonas aeruginosa transcriptome”.

B1: mvaT BS1 mutant (ssRNA)
RNA: GGGAUAAUACUUACAUGCCCGCCACCGCCACUCAGCACAGACAAGGUACCUGACAUGUCCCUGAUCAACGAAUAUCGCGCCCACACAGAAGCCAUCAAGGAACUUCAGGAGCGCCUGAAGUCCCUGGAACAAGACGACAAACUGAAAAAAGAAC
B2: mvaT BS3 mutant (ssRNA)
RNA: GGGAUAAUACUUACAUGCCCGCCACCGCCACUCAGCACAGACAAGGUACCUGACAUGUCCCUGAUCAACGAAUAUCGCGCCACGGAAGAAGCCAUCAAGGAACUUCAGGAGCGCCUGAAGUCCCUCUGACAAGACGACAAACUGAAAAAAGAAC
B3: mvaT BS2 mutant (ssRNA)
RNA: GGGAUAAUACUUACAUGCCCGCCACCGCCACUCAGCACAGACAAGGUACCUGACAUGUCCCUGAUCAACGAAUAUCGCGCCACGGAAGAAGCCAUCCAAUUACUUCAGGAGCGCCUGAAGUCCCUGGAACAAGACGACAAACUGAAAAAAGAAC
B4: rsaL BS1 mutant (ssRNA)
RNA: GGGAUAAUAAACGUCCGAAAAGAUCAGAGCAAUGGCUUCACACGAGAGAACACAGCCCCAAAACAUGGCCUUCCGGGCAAAGGCCACCCGCACCGCCCGCACUGAAAGCCAGGAAACUUUCUGGAGCCGCU
B5: rsaL BS2 mutant (ssRNA)
RNA: GGGAUAAUAAACGUCCGAAAAGAUCAGAGCAAUGGCUUCACACGAGAGAACACAGCCCCAAAACAUGGCCUUCCGGGCAAAGGCCACCCGCACCGCCCGACGGGAAAGCCAUACAACUUUCUGGAGCCGCU

Sequence of RsmA (O69078 whole entry): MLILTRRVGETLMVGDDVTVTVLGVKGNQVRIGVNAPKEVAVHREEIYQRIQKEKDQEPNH

The data set addresses RsmA (Pseudomonas aeruginosa, UniProt O69078 1-61). Nature of the data set: filter binding; affinity unchanged vs WT; Filter binding: 10 mM Tris-HCl pH 7.5, 100 mM KCl, 10 mM MgCl2, 10 mM DTT, 10 ug/mL heparin, RNase inhibitor, 0.5 nM RNA, 37 C 30 min; Hill coefficient 2. The conditions noted are these: protein: recombinant; expressed in E. coli BL21; chain copies: 2; label: 5'-32P.
For B1, the binding result is on record as “binds”.
For B2 the value was “binds”; for B3, “binds”; for B4, “binds”.
For B5 the value was “binds”.
